From the supplement of paper PMC6757056
± gives the standard deviation of the averaged measurements.

B1: library; a variant is named by its letters at N, in order (parent)
chain: GCUGUCACCGGUGCUUGGUACGUUAUAUUCAGCCGGUCUGAUGAGUCUNNNNNNAGACGAAACAGC

Experiments:
(6R,S)-folinic acid [1] = variants of: B1; assay: normalized RNA/DNA level without ligand (relative to sTRSVctl = 100) (log10 (% of sTRSVctl)); HEK293T overexpressing SLC46A1; higher = less ribozyme self-cleavage, higher mRNA level; details: without (6R,S)-folinic acid; ligand present: no
Procedure, shortened: (§1)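 Ribozyme switch library plasmids linked to reporters were introduced into HEK293T cells at 4 µg per 6-well well, with ligand, if any, added 1 h before. Total RNA was extracted with EDTA 72 h later, reverse-transcribed, amplified, barcoded and sequenced. RNA level was computed from RNA over DNA reads relative to a spiked-in non-cleaving sequence or the top sequences, then scaled and log-transformed. The top set was 25 sequences, values were ×100 and log10, and the cutoff was ≥100 DNA reads.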

(6R,S)-folinic acid [2] = variants of: B1; assay: normalized RNA/DNA level with ligand (relative to sTRSVctl = 100) (log10 (% of sTRSVctl)); HEK293T overexpressing SLC46A1; ligand concentration (+) RNA-Seq: 6 mM; higher = less ribozyme self-cleavage, higher mRNA level; details: with (6R,S)-folinic acid; ligand present: yes
Procedure, shortened: as §1

Row | Variant | normalized RNA/DNA level without ligand (log10) ((6R,S)-folinic acid [1]) | normalized RNA/DNA level with ligand (log10) ((6R,S)-folinic acid [2])
1 | GUAUAU | 1.944 ± 0.018 | 1.97 ± 0.043
2 | GUAUAC | 1.9802 ± 0.0015 | 2.02 ± 0.026
3 | GUAUAA | 1.96 ± 0.014 | 1.99 ± 0.006
4 | UGUUGU | 1.9049 ± 9.7e-05 | 2 ± 0.027
5 | UUCCAC | 2.01 ± 0.016 | 1.99 ± 0.033
6 | GUCAGA | 2.0258 ± 0.00039 | 2.027 ± 0.01
7 | GUCAGU | 2.03 ± 0.026 | 2.04 ± 0.038
8 | GUCAGC | 1.979 ± 0.018 | 2.02 ± 0.033
9 | CUAACA | 2.026 ± 0.012 | 2.03 ± 0.043
10 | CUAACG | 2.02 ± 0.018 | 1.99 ± 0.053
11 | CUAACC | 2.007 ± 0.0068 | 1.98 ± 0.073
12 | CUAACU | 2.007 ± 0.0098 | 2 ± 0.035
13 | AUAAUU | 1.99 ± 0.025 | 2.03 ± 0.038
14 | AUAAUG | 1.91 ± 0.021 | 2 ± 0.043
15 | AUAAUC | 2.024 ± 0.015 | 2 ± 0.032
16 | CUCAGU | 2.024 ± 0.015 | 2.017 ± 0.015
17 | CUCAGA | 2.048 ± 0.019 | 2.03 ± 0.07
18 | CUCAGG | 1.99 ± 0.021 | 2.03 ± 0.03
19 | CUCAGC | 2.06 ± 0.0071 | 2.032 ± 0.0023
20 | UUACCU | 2.061 ± 0.0025 | 2.05 ± 0.04
21 | UUACCA | 2.03 ± 0.0034 | 2.028 ± 0.016
22 | UUACCG | 1.969 ± 0.0046 | 2 ± 0.04
23 | AUACUU | 2.018 ± 0.013 | 2.01 ± 0.043
24 | AUACUG | 1.939 ± 0.0046 | 2.01 ± 0.03

Row | Variant | normalized RNA/DNA level without ligand (log10) ((6R,S)-folinic acid [1]) | normalized RNA/DNA level with ligand (log10) ((6R,S)-folinic acid [2])
25 | AUACUA | 1.97 ± 0.026 | 1.99 ± 0.025
26 | UUACAA | 1.963 ± 0.0022 | 2.01 ± 0.028
27 | UUACAG | 1.898 ± 0.017 | 1.99 ± 0.027
28 | UUACAU | 1.96 ± 0.025 | 1.98 ± 0.028
29 | UUACAC | 2.003 ± 0.0021 | 1.99 ± 0.038
30 | GUAGUC | 2.038 ± 0.0078 | 2.03 ± 0.032
31 | GUAGUU | 2.003 ± 0.0023 | 2.02 ± 0.021
32 | GUAGUA | 1.9662 ± 0.0006 | 1.98 ± 0.025
33 | AUAAGA | 1.971 ± 0.0094 | 2.01 ± 0.034
34 | CUCCAA | 2.03 ± 0.021 | 2.02 ± 0.025
35 | CUCCAC | 2.0214 ± 0.0016 | 2.01 ± 0.046
36 | AUAGUC | 2.056 ± 0.0045 | 2.03 ± 0.033
37 | AUAGUU | 1.9853 ± 0.0008 | 2.009 ± 0.01
38 | UUAUAA | 1.925 ± 0.0034 | 1.981 ± 0.017
39 | UUAUAU | 1.9416 ± 0.0019 | 2 ± 0.057
40 | UUAACA | 1.998 ± 0.0047 | 1.971 ± 0.01
41 | UUAACG | 1.934 ± 0.018 | 1.984 ± 0.019
42 | UUAACC | 2.016 ± 0.0049 | 2 ± 0.025
43 | UUAACU | 2.041 ± 0.0026 | 2.018 ± 0.0049
44 | GUAGCA | 1.973 ± 0.0074 | 2 ± 0.022
45 | GUAGCC | 2.021 ± 0.016 | 2.051 ± 0.0086
46 | GUAGCG | 1.93 ± 0.023 | 2.01 ± 0.036
47 | UUAGAC | 2 ± 0.01 | 2.01 ± 0.041
48 | UUAGAU | 1.946 ± 0.012 | 1.99 ± 0.021

Row | Variant | normalized RNA/DNA level without ligand (log10) ((6R,S)-folinic acid [1]) | normalized RNA/DNA level with ligand (log10) ((6R,S)-folinic acid [2])
49 | UUAUCA | 1.999 ± 0.019 | 2.01 ± 0.021
50 | UUAUCG | 1.885 ± 0.0047 | 1.97 ± 0.041
51 | UUAUCC | 2.04 ± 0.016 | 2.01 ± 0.032
52 | CUAUCA | 2.03 ± 0.035 | 2.0307 ± 0.00092
53 | CUAUCG | 2.037 ± 0.015 | 2.02 ± 0.043
54 | CUAUCC | 2.07 ± 0.03 | 2.04 ± 0.037
55 | CUAUCU | 2.042 ± 0.0051 | 2.06 ± 0.022
56 | AUCCAA | 1.958 ± 0.0049 | 1.98 ± 0.02
57 | AUCCAC | 2.037 ± 0.013 | 2.02 ± 0.037
58 | GUAUGU | 1.937 ± 0.015 | 1.995 ± 0.013
59 | GUAUGG | 1.921 ± 0.015 | 2.02 ± 0.035
60 | GUAUGA | 1.987 ± 0.0024 | 2.028 ± 0.017
61 | GGUUUU | 2 ± 0.021 | 1.99 ± 0.033
62 | GGUUUC | 2.021 ± 0.011 | 1.9966 ± 0.0012
63 | GGUUUA | 2.009 ± 0.018 | 1.98 ± 0.03
64 | CUCACG | 2.04 ± 0.027 | 2.028 ± 0.02
65 | CUCACA | 2.036 ± 0.0022 | 2 ± 0.049
66 | CUCACC | 2.06 ± 0.029 | 1.96 ± 0.048
67 | CUCACU | 2.041 ± 0.0055 | 1.99 ± 0.021
68 | AUCAGG | 1.96 ± 0.023 | 2.04 ± 0.041
69 | AUCAGA | 2.047 ± 0.0058 | 2.04 ± 0.031
70 | AUCAGC | 2.065 ± 0.016 | 2.02 ± 0.031
71 | AUCACC | 2.057 ± 0.0026 | 2.04 ± 0.053
72 | AUCACU | 2.029 ± 0.008 | 2.01 ± 0.03

Row | Variant | normalized RNA/DNA level without ligand (log10) ((6R,S)-folinic acid [1]) | normalized RNA/DNA level with ligand (log10) ((6R,S)-folinic acid [2])
73 | AUCACG | 1.969 ± 0.014 | 2.01 ± 0.043
74 | GUACAU | 1.965 ± 0.005 | 2.01 ± 0.034
75 | GUACAA | 1.966 ± 0.013 | 1.986 ± 0.011
76 | CGUUUU | 2.032 ± 0.0078 | 2.037 ± 0.0095
77 | CGUUUC | 2.06 ± 0.047 | 2.06 ± 0.06
78 | CGUUUA | 1.99 ± 0.03 | 2.01 ± 0.034
79 | CGUUUG | 2 ± 0.029 | 1.986 ± 0.0034
80 | AUAGAA | 1.937 ± 0.0051 | 1.98 ± 0.028
81 | AUACGA | 1.9851 ± 0.0003 | 2.01 ± 0.043
82 | AUACGC | 2.015 ± 0.018 | 1.998 ± 0.013
83 | AUACGU | 2.005 ± 0.0023 | 2.026 ± 0.01
84 | UUCAUA | 1.993 ± 0.0029 | 1.994 ± 0.002
85 | UUCAUU | 2.025 ± 0.0078 | 2.01 ± 0.053
86 | UUCAUC | 2.01 ± 0.036 | 1.93 ± 0.043
87 | AUAUAA | 1.956 ± 0.0059 | 1.96 ± 0.032
88 | GUACCU | 2.086 ± 0.0075 | 2.06 ± 0.051
89 | GUACCG | 2.088 ± 0.0044 | 2.06 ± 0.014
90 | GUACCC | 2.02 ± 0.03 | 2.03 ± 0.06
91 | GUACCA | 2.0976 ± 0.0018 | 2.038 ± 0.013
92 | UUAGCG | 1.896 ± 0.0052 | 1.98 ± 0.032
93 | UUAGCC | 2.013 ± 0.0037 | 1.99 ± 0.026
94 | UUAGCU | 2.007 ± 0.0056 | 2.02 ± 0.047
95 | UUAUUC | 2.012 ± 0.0098 | 2.02 ± 0.079
96 | UUAUUA | 1.975 ± 0.0052 | 1.99 ± 0.02

Row | Variant | normalized RNA/DNA level without ligand (log10) ((6R,S)-folinic acid [1]) | normalized RNA/DNA level with ligand (log10) ((6R,S)-folinic acid [2])
97 | GUAGAC | 1.911 ± 0.0045 | 2.003 ± 0.01
98 | AUAACG | 1.9455 ± 0.0011 | 2.02 ± 0.033
99 | GUAUUA | 2.005 ± 0.01 | 2 ± 0.072
100 | GUAUUG | 1.9409 ± 0.00012 | 2.003 ± 0.0063
101 | GUAUUC | 2.03 ± 0.025 | 2.021 ± 0.019
102 | GUCCAA | 1.992 ± 0.011 | 2.01 ± 0.035
103 | GUCCAC | 2.006 ± 0.011 | 2.011 ± 0.017
104 | CUCAAG | 1.96 ± 0.024 | 2.01 ± 0.023
105 | CUCAAA | 2 ± 0.016 | 1.97 ± 0.032
106 | CUCAAC | 2.07 ± 0.029 | 2.045 ± 0.0073
107 | AUCAUU | 2.05 ± 0.024 | 2.03 ± 0.023
108 | AUCAUG | 1.989 ± 0.009 | 2.005 ± 0.019
109 | AUCAUA | 1.98 ± 0.02 | 1.99 ± 0.046
110 | AUCAUC | 2.01 ± 0.022 | 1.98 ± 0.031
111 | GUAACG | 1.997 ± 0.0059 | 2 ± 0.039
112 | GUAACA | 2.016 ± 0.0052 | 1.98 ± 0.042
113 | GUAACU | 2.03 ± 0.016 | 2.03 ± 0.036
114 | GUACUG | 2.002 ± 0.013 | 2.015 ± 0.017
115 | AUAUUA | 1.963 ± 0.012 | 1.996 ± 0.019
116 | AUAUUU | 2.008 ± 0.0083 | 2.02 ± 0.027
